Data taken from patent US20230151068A1.

These binders were tested against biotinylated His-Avi-TEAD (194-411) (UniProt P28347) (assay: SSM screen, enrichment after two rounds of sorting).

enrichment score	Binder
1.19	GSPDTYIERAKECCKKGDIQCCLRYFEESGDPNVMLICLFCP (designed binder) [E03T variant of SEQ ID NO: 1]
-3.52	GSPDEYIERAFECCKKGDIQCCLRYFEESGDPNVMLICLFCP (designed binder) [K09F variant of SEQ ID NO: 1]
-0.75	GSPDEVIERAKECCKKGDIQCCLRYFEESGDPNVMLICLFCP (designed binder) [Y04V variant of SEQ ID NO: 1]
-0.27	GSPDEYVERAKECCKKGDIQCCLRYFEESGDPNVMLICLFCP (designed binder) [I05V variant of SEQ ID NO: 1]
-0.4	GSPDEYILRAKECCKKGDIQCCLRYFEESGDPNVMLICLFCP (designed binder) [E06L variant of SEQ ID NO: 1]
-0.92	GSPDEYITRAKECCKKGDIQCCLRYFEESGDPNVMLICLFCP (designed binder) [E06T variant of SEQ ID NO: 1]
-1.55	GSPDEYIVRAKECCKKGDIQCCLRYFEESGDPNVMLICLFCP (designed binder) [E06V variant of SEQ ID NO: 1]
-11.2	GSPDEYIERALECCKKGDIQCCLRYFEESGDPNVMLICLFCP (designed binder) [K09L variant of SEQ ID NO: 1]
-8.31	GSPDEYIERIKECCKKGDIQCCLRYFEESGDPNVMLICLFCP (designed binder) [A08I variant of SEQ ID NO: 1]
-0.39	GSPDEYIELAKECCKKGDIQCCLRYFEESGDPNVMLICLFCP (designed binder) [R07L variant of SEQ ID NO: 1]
-4.43	GSPDEYIERVKECCKKGDIQCCLRYFEESGDPNVMLICLFCP (designed binder) [A08V variant of SEQ ID NO: 1]
-8.88	GSPDEYIERAVECCKKGDIQCCLRYFEESGDPNVMLICLFCP (designed binder) [K09V variant of SEQ ID NO: 1]
2.68	GSPDEYIERATECCKKGDIQCCLRYFEESGDPNVMLICLFCP (designed binder) [K09T variant of SEQ ID NO: 1]
-1.2	GSPDEYAERAKECCKKGDIQCCLRYFEESGDPNVMLICLFCP (designed binder) [I05A variant of SEQ ID NO: 1]
-0.87	GSPDETIERAKECCKKGDIQCCLRYFEESGDPNVMLICLFCP (designed binder) [Y04T variant of SEQ ID NO: 1]
-3.98	GSPDEYIEIAKECCKKGDIQCCLRYFEESGDPNVMLICLFCP (designed binder) [R07I variant of SEQ ID NO: 1]
-2.27	GSIDEYIERAKECCKKGDIQCCLRYFEESGDPNVMLICLFCP (designed binder) [P01I variant of SEQ ID NO: 1]
0.36	GSADEYIERAKECCKKGDIQCCLRYFEESGDPNVMLICLFCP (designed binder) [P01A variant of SEQ ID NO: 1]
-2.02	GSPDAYIERAKECCKKGDIQCCLRYFEESGDPNVMLICLFCP (designed binder) [E03A variant of SEQ ID NO: 1]

enrichment score	Binder
-1.56	GSPDEYIIRAKECCKKGDIQCCLRYFEESGDPNVMLICLFCP (designed binder) [E06I variant of SEQ ID NO: 1]
-3.84	GSPDEYIERTKECCKKGDIQCCLRYFEESGDPNVMLICLFCP (designed binder) [A08T variant of SEQ ID NO: 1]
-0.24	GSPDEYIERAKACCKKGDIQCCLRYFEESGDPNVMLICLFCP (designed binder) [E10A variant of SEQ ID NO: 1]
-1.57	GSPDEYIERAKTCCKKGDIQCCLRYFEESGDPNVMLICLFCP (designed binder) [E10T variant of SEQ ID NO: 1]
-4.07	GSPDEYIETAKECCKKGDIQCCLRYFEESGDPNVMLICLFCP (designed binder) [R07T variant of SEQ ID NO: 1]
-1.27	GSPDEYIERAAECCKKGDIQCCLRYFEESGDPNVMLICLFCP (designed binder) [K09A variant of SEQ ID NO: 1]
-1.96	GSPDEYIFRAKECCKKGDIQCCLRYFEESGDPNVMLICLFCP (designed binder) [E06F variant of SEQ ID NO: 1]
0.32	GSPDLYIERAKECCKKGDIQCCLRYFEESGDPNVMLICLFCP (designed binder) [E03L variant of SEQ ID NO: 1]
-0.38	GSPDEYLERAKECCKKGDIQCCLRYFEESGDPNVMLICLFCP (designed binder) [I05L variant of SEQ ID NO: 1]
-1.77	GSPDEYTERAKECCKKGDIQCCLRYFEESGDPNVMLICLFCP (designed binder) [I05T variant of SEQ ID NO: 1]
-2.9	GSLDEYIERAKECCKKGDIQCCLRYFEESGDPNVMLICLFCP (designed binder) [P01L variant of SEQ ID NO: 1]
0.67	GSPDEFIERAKECCKKGDIQCCLRYFEESGDPNVMLICLFCP (designed binder) [Y04F variant of SEQ ID NO: 1]
-0.41	GSPDEIIERAKECCKKGDIQCCLRYFEESGDPNVMLICLFCP (designed binder) [Y04I variant of SEQ ID NO: 1]
-0.7	GSPIEYIERAKECCKKGDIQCCLRYFEESGDPNVMLICLFCP (designed binder) [D02I variant of SEQ ID NO: 1]
-1.3	GSFDEYIERAKECCKKGDIQCCLRYFEESGDPNVMLICLFCP (designed binder) [P01F variant of SEQ ID NO: 1]
-2.31	GSPDEYIEVAKECCKKGDIQCCLRYFEESGDPNVMLICLFCP (designed binder) [R07V variant of SEQ ID NO: 1]
-1.39	GSPDVYIERAKECCKKGDIQCCLRYFEESGDPNVMLICLFCP (designed binder) [E03V variant of SEQ ID NO: 1]
-1.43	GSPAEYIERAKECCKKGDIQCCLRYFEESGDPNVMLICLFCP (designed binder) [D02A variant of SEQ ID NO: 1]
-3.03	GSPDEYIERAIECCKKGDIQCCLRYFEESGDPNVMLICLFCP (designed binder) [K09I variant of SEQ ID NO: 1]

enrichment score	Binder
-3.41	GSPFEYIERAKECCKKGDIQCCLRYFEESGDPNVMLICLFCP (designed binder) [D02F variant of SEQ ID NO: 1]
-0.59	GSVDEYIERAKECCKKGDIQCCLRYFEESGDPNVMLICLFCP (designed binder) [P01V variant of SEQ ID NO: 1]
-2.34	GSPVEYIERAKECCKKGDIQCCLRYFEESGDPNVMLICLFCP (designed binder) [D02V variant of SEQ ID NO: 1]
-1.04	GSPDEYIEFAKECCKKGDIQCCLRYFEESGDPNVMLICLFCP (designed binder) [R07F variant of SEQ ID NO: 1]
-1.6	GSPDEYIERAKFCCKKGDIQCCLRYFEESGDPNVMLICLFCP (designed binder) [E10F variant of SEQ ID NO: 1]
-8.36	GSPDEYFERAKECCKKGDIQCCLRYFEESGDPNVMLICLFCP (designed binder) [I05F variant of SEQ ID NO: 1]
-1.83	GSPDEYIERAKLCCKKGDIQCCLRYFEESGDPNVMLICLFCP (designed binder) [E10L variant of SEQ ID NO: 1]
-3.53	GSPLEYIERAKECCKKGDIQCCLRYFEESGDPNVMLICLFCP (designed binder) [D02L variant of SEQ ID NO: 1]
-1.77	GSPDEYIERAKVCCKKGDIQCCLRYFEESGDPNVMLICLFCP (designed binder) [E10V variant of SEQ ID NO: 1]
-0.68	GSPDEYIARAKECCKKGDIQCCLRYFEESGDPNVMLICLFCP (designed binder) [E06A variant of SEQ ID NO: 1]
0.26	GSPDEAIERAKECCKKGDIQCCLRYFEESGDPNVMLICLFCP (designed binder) [Y04A variant of SEQ ID NO: 1]
-1.81	GSPDELIERAKECCKKGDIQCCLRYFEESGDPNVMLICLFCP (designed binder) [Y04L variant of SEQ ID NO: 1]
-0.26	GSPDIYIERAKECCKKGDIQCCLRYFEESGDPNVMLICLFCP (designed binder) [E03I variant of SEQ ID NO: 1]
0.28	GSPDEYIEAAKECCKKGDIQCCLRYFEESGDPNVMLICLFCP (designed binder) [R07A variant of SEQ ID NO: 1]
-0.65	GSPDEYIERAKICCKKGDIQCCLRYFEESGDPNVMLICLFCP (designed binder) [E10I variant of SEQ ID NO: 1]
0.32	GSPDFYIERAKECCKKGDIQCCLRYFEESGDPNVMLICLFCP (designed binder) [E03F variant of SEQ ID NO: 1]
-4.33	GSPDEYIERFKECCKKGDIQCCLRYFEESGDPNVMLICLFCP (designed binder) [A08F variant of SEQ ID NO: 1]
-9.93	GSPDEYIERLKECCKKGDIQCCLRYFEESGDPNVMLICLFCP (designed binder) [A08L variant of SEQ ID NO: 1]
